The target of the assay is ADP-ribosylation factor-like protein 13B (Arl13b). Nature of the assay: co-immunoisolation with paramagnetic beads, immunoblot quantification. As to conditions: MDCK cells expressing Prom1 or K138Q; n = 3; parent: est. 0.53; read off a plot. In general terms: In western blotting, separated proteins are transferred to a membrane and probed.

Consider “Human Prominin-1 (Prom1/CD133), splice variant s2 (from UniProt O43490) K138Q”, for which the other: Arl13b / Prom1 ratio turned out to be 0.05.

For the origin of these results see PMC6331727.
